For four substances, stoichiometry N results are on record in article PMC4506781.

Assay in all cases: cross-linking
The target in experiment [1] is HIV-1 CA P207C/T216C, assembled into tubes (HIV-1).
Experiment [2] deals with CA P207C/T216C in isolated HIV-1 cores (R9.P207C/T216C) (HIV-1).
The target in experiment [3] is CA A14C/E45C in isolated HIV-1 cores (R9.A14C/E45C) (HIV-1).
Experiment [4] has as its target HIV-1 CA A14C/E45C, assembled into tubes (HIV-1).

As a reminder, the stoichiometry N is a count of units in the complex or per binding partner. “HIV-1 CA P207C/T216C, assembled into tubes (natural protein)” displayed a stoichiometry N in experiment [1] of 3. “CA P207C/T216C in isolated HIV-1 cores (R9.P207C/T216C) (natural protein)”: in experiment [2], the stoichiometry N stood at 3. In turn, “CA A14C/E45C in isolated HIV-1 cores (R9.A14C/E45C) (natural protein)” came in with a stoichiometry N in experiment [3] of 6. For “HIV-1 CA A14C/E45C, assembled into tubes (natural protein)”, the stoichiometry N in experiment [4] came out at 6.
